Primed or numbered codes have the meaning given here. Ends that are not written are not given here. FITC′ = fluorescein isothiocyanate label

Assay [1] addresses T1, recombinant IAg7 (rIAg7; RTL450), single polypeptide comprising the β1 and α1 domains of the MHC class II … (mouse).
T1 construct: no peptide attached; Internal C17-C79 disulfide bond; also called empty rIAg7; rIA7
T1 chain: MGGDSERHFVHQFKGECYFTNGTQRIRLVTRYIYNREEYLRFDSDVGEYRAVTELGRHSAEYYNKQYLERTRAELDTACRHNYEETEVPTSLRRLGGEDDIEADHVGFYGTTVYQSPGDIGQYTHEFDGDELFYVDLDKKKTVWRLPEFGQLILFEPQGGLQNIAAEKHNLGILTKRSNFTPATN
The assay is described as follows: disulfide capture of FITC-labeled peptides, SDS-PAGE.

In assay [2] the target is T2, recombinant human DR2 (β1α1 RTL) (human).
T2 construct: Single-chain two-domain MHC class II polypeptide, with no peptide attached before loading; also called rDR2; DR2 RTL
T2 chain: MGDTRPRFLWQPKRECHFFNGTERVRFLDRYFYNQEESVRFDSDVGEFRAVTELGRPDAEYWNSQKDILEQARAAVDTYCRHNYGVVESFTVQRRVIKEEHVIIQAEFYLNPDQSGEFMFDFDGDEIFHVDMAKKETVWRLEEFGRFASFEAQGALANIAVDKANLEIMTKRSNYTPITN
Put plainly: disulfide capture, SDS-PAGE.

For assay [3], the target named is T3, recombinant murine I-A^b (β1α1 RTL) (mouse).
T3 construct: Single-chain two-domain MHC class II polypeptide, with no peptide attached before loading; also called rI-A^b RTL; rIAb
T3 chain: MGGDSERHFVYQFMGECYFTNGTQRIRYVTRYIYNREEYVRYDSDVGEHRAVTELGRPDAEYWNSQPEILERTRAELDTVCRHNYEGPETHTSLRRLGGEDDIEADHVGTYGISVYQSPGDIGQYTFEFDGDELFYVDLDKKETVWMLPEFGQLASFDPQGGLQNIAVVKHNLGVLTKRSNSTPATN
The assay is described as follows: disulfide capture, SDS-PAGE.

In assay [4] the target is T1, recombinant IAg7 (rIAg7; RTL450), …. Put plainly: disulfide capture, Coomassie stained SDS-PAGE. Here is the method: (§1) A mixture of 10:1 peptide:rIAg7 at 200 μg/ml, 100 mM NaPO₄ pH 6.5; 150 mM NaCl; 0.05% SDS; and 0.01% NaN₃ was produced. After inspecting the mixture for any precipitation, reactions were incubated at 37° C. for 60 hours. Analysis of ability of redox capture conditions to facilitate peptide capture by MHC was performed as follows: 20 μl aliquots at various time points were mixed with an equal volume of 2× electrophoresis sample buffer (1% glycerol, 500 mM Tris, 0.2% SDS, and bromophenol blue at pH 8.0). Samples were then placed on ice for 30 minutes, heated at 90° C. for 6 minutes with or without β-mercaptoethanol and separated by 10-20% SDS-PAGE followed by Coomassie Blue staining to visualize the proteins. Proteins were quantified by densitometry scanning using Molecular Imager FX 5 and Quantity One software (Bio-Rad, Hercules, Calif.).
A recombinant form of IAg7 (rIAg7) comprising the β1 and α1 domains of the MHC class II molecule expressed as a single polypeptide (rIAg7; RTL450-series) was designed. IAg7-derived constructs are readily produced in E. coli, are well-behaved in aqueous buffers, and bind antigenic peptides. All MHC class II β1 domains comprise a disulfide bond between cysteine 17 and cysteine 79. Insulin B:9-23 is an antigenic peptide that binds IAg7 and comprises a cysteine residue at position 19. […]

The target is the same in assay [5]. The assay is described as follows: disulfide capture of amino-terminal truncated peptides, SDS-PAGE. As for the experimental part: as §1
Coomassie stained bands (29 kD and 31 kD, as indicated) were quantified to determine an initial rate of capture (FIG. 3). Insulin B:16-23 peptide (FITC-[…]; SEQ ID NO: 1) and rIAg7 were mixed (10:1, peptide:rIAg7) in 100 mM NaPO₄, pH 6.5, 150 mM NaCl, 0.05% SDS, and 0.01% NaN₃ and allowed to incubate for the indicated time.

Regarding {FITC′}-SHLVEALYLVACERG [FITC-labeled insulin B:9-23 C20 variant (cysteine moved to position 20)], the binding result in assay [1] is “binds”. For MEVGWYRSCFSRVVHLYRNGK (also called hMOG35-55 P43C variant) [MOG35-55 P43C variant], the binding result in assay [2] is listed as “binds”. On the same count and under the same terms, then MEVGWYRCPFSRVVHLYRNGK (also called hMOG35-55 S42C variant) [MOG35-55 S42C variant], with “binds”.

B1: FITC-labeled insulin B:9-23 peptide, wild-type sequence (C19) (peptide)
peptide: {FITC′}-SHLVEALYLVCGERG
notes: also called Wild-type insulin B:9-23 peptide (C19); amino-terminal FITC-coupled B:9-23
For the molecule B1, the binding result in assay [1] is “binds”.

B2: S45C mutated mouse MOG35-55 (peptide)
peptide: MEVGWYRPPFCRVVHLYRNGK
notes: also called mMOG35-55 S45C variant; mouse MOG35-55 S45C variant
On to B2, for which the binding result in assay [3] is listed as “binds”.

On to {FITC′}-SHLVEALYLCAGERG [FITC-labeled insulin B:9-23 C18 variant (cysteine moved to position 18)], for which, in assay [1], the binding result was “binds”.

B3: insulin B:9-23 peptide (peptide)
peptide: SHLVEALYLVCGERG
notes: Synthetic peptide; also called Insulin B:9-23 (WT); InsB:9-23
As to B3, the binding result in assay [4] is “binds”. For {FITC′}-YLVCGERG (The C-terminal 8 amino acids of B:9-23) [FITC-labeled 8-mer insulin B:16-23 peptide], the binding result in assay [5] is listed as “binds”.

The values are drawn from patent US20130171179A1 (OREGON HEALTH AND SCIENCE UNIVERSITY, published 2013).
